Assay results: the supplement of paper PMC6757056
± gives the standard deviation of the averaged measurements.

B1: library; a variant is named by its letters at N, in order (parent)
chain: GCUGUCACCGGUGCUUGGUACGUUAUAUUCAGCCGGUCUGAUGAGUCUNNNNNNAGACGAAACAGC

How the values were obtained:
(6R,S)-folinic acid [1] = variants of: B1; test: FACS-Seq fitted mean relative fluorescence mCherry/BFP without ligand (log10 relative fluorescence); HEK293T overexpressing SLC46A1; higher = higher reporter protein expression; details: without (6R,S)-folinic acid; ligand present: no
In short: (§1)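 Fluorescence values are fitted normal means of bin counts along the mCherry/BFP axis. HEK293T libraries lentivirally carrying the ribozyme switch in an mCherry reporter, with an EF1α-BFP marker, were enriched, exposed to ligand or not for 48 h, and sorted into 6 bins. Genomic DNA per bin was PCR-amplified, barcoded and run on MiSeq. Means of log10(mCherry/BFP) were scaled to five spiked-in control ribozymes.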

(6R,S)-folinic acid [2] = variants of: B1; test: normalized RNA/DNA level without ligand (relative to sTRSVctl = 100) (log10 (% of sTRSVctl)); HEK293T overexpressing SLC46A1; higher = less ribozyme self-cleavage, higher mRNA level; details: without (6R,S)-folinic acid; ligand present: no
In short: (§2)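 HEK293T cells were transfected with library plasmids carrying ribozyme switches linked to an mCherry reporter, or an eGFP reporter in some ligand experiments, at 4 µg per well of a 6-well plate, with any ligand added 1 h beforehand. After 72 h, total RNA was extracted with EDTA, reverse-transcribed, amplified, barcoded and sequenced. RNA level was defined as RNA reads over DNA reads, normalized to a spiked-in non-cleaving sequence or to the top-ranked sequences. That value was multiplied by 100 and converted to log10, the top set was 25 sequences, and only sequences with ≥100 DNA reads were retained.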

(6R,S)-folinic acid [3] = variants of: B1; test: FACS-Seq fitted mean relative fluorescence mCherry/BFP with ligand (log10 relative fluorescence); HEK293T overexpressing SLC46A1; ligand concentration (+) FACS-Seq: 6 mM; higher = higher reporter protein expression; details: with (6R,S)-folinic acid; ligand present: yes
In short: as §1

(6R,S)-folinic acid [4] = variants of: B1; test: normalized RNA/DNA level with ligand (relative to sTRSVctl = 100) (log10 (% of sTRSVctl)); HEK293T overexpressing SLC46A1; ligand concentration (+) RNA-Seq: 6 mM; higher = less ribozyme self-cleavage, higher mRNA level; details: with (6R,S)-folinic acid; ligand present: yes
In short: as §2

| Variant | FACS-Seq fitted mean (log10) ((6R,S)-folinic acid [1]) | normalized RNA/DNA level without ligand (log10) ((6R,S)-folinic acid [2]) | FACS-Seq fitted mean (log10) ((6R,S)-folinic acid [3]) | normalized RNA/DNA level with ligand (log10) ((6R,S)-folinic acid [4]) |
| --- | --- | --- | --- | --- |
| UCGAUA | 0.597 ± 0.085 | 1.987 ± 0.0049 | 0.69 ± 0.34 | 2.02 ± 0.026 |
| UCGAUG | 0.26 ± 0.021 | 1.797 ± 0.015 | 0.486 ± 0.017 | 1.97 ± 0.039 |
| UCGGAA | 0.527 ± 0.079 | 1.897 ± 0.0085 | 0.24 ± 0.14 | 1.99 ± 0.037 |
| UCGGAU | 0.33 ± 0.067 | 1.946 ± 0.019 | 0.517 ± 0.14 | 2.01 ± 0.024 |
| UCGGAG | 0.429 ± 0.14 | 1.74 ± 0.019 | 0.837 ± 0.14 | 1.972 ± 0.0045 |
| GCCAUG | 0.2783 ± 0.0012 | 1.982 ± 0.019 | 0.209 ± 0.15 | 2.01 ± 0.026 |
| ACGCUU | -0.382 ± 0.065 | 2.057 ± 0.018 | -0.593 ± 0.26 | 2.047 ± 0.0046 |
| GCUCGU | 0.5943 ± 0.0012 | 2.0305 ± 0.0014 | 0.851 ± 0.091 | 2.02 ± 0.037 |
| GCCUUA | 0.12 ± 0.15 | 1.98 ± 0.027 | -0.0974 ± 0.14 | 1.99 ± 0.037 |
| UCGUUG | 0.531 ± 0.029 | 1.881 ± 9.4e-05 | 0.5984 ± 0.0051 | 2.006 ± 0.0038 |
| GCUAUA | 0.337 ± 0.086 | 1.985 ± 0.014 | 0.51 ± 0.19 | 2.019 ± 0.0034 |
| UCCGUG | 0.0926 ± 0.016 | 1.78 ± 0.029 | 0.562 ± 0.067 | 1.98 ± 0.043 |
| GCGAAU | 0.583 ± 0.062 | 2.014 ± 0.0084 | 0.3524 ± 0.00074 | 2.047 ± 0.016 |
| GCGAAC | 0.252 ± 0.064 | 1.951 ± 0.002 | 0.261 ± 0.15 | 2.04 ± 0.027 |
| GCGAAA | 0.397 ± 0.13 | 1.977 ± 0.0092 | 0.39 ± 0.054 | 2.019 ± 0.017 |
| GCGAAG | 0.477 ± 0.0095 | 1.947 ± 0.0035 | 0.576 ± 0.049 | 2.05 ± 0.0089 |
| CCUACA | -0.221 ± 0.03 | 2.02 ± 0.044 | -0.392 ± 0.29 | 2.04 ± 0.043 |
| UCUAAA | 0.394 ± 0.046 | 1.977 ± 0.0068 | 0.483 ± 0.022 | 2.018 ± 0.017 |
